The text below walks through data of patent US20160152995A1, “METHODS AND COMPOSITIONS TO IMPROVE THE SPREAD OF CHEMICAL SIGNALS IN PLANTS” (PIONEER HI-BRED INTERNATIONAL, INC., priority 2013, published 2016).

The labels stand for the following.
B1: L6-1B03 (protein)
chain: MGSRLDKSKVINSALELLNEVGIEGLTTRKLAQKLGVEQPTLYWHVKNKRALLDALAIEMMDRHATHICPLEGESWQDFLRNNAKSMRCALLSHRDGAKVCLGTRWTEQQYEAAENMLAFLCQQGFSLENALYAVSAVRVFTLGCVLFDQESQVAKEERETPTTASMPPLLRQAWELKDHQGAEPAFLFGLELIICGLEKQLKCESGS
modifications: Sulfonylurea responsive repressor
B2: L6-6F07 (protein)
chain: B1 chain with I68L, N83T, A113S, V135M
modifications: Sulfonylurea responsive repressor
B3: L6-3H02: SuR polypeptide, SEQ ID NO:94 (protein)
chain: B1 chain with I68Y, N83T, Q110H, A113S, L171V, D179V
modifications: Sulfonylurea responsive repressor
B4: L6-2C09 (protein)
chain: B1 chain with A65Q, I68Y, N83T, Q110L, A113T, M117Q, V135M, S152L
modifications: Sulfonylurea responsive repressor
B5: L6-4D10: library L6 clone, parent of library L8 hits (protein)
chain: B1 chain with A65Q, I68Y, Q109K, A113S
modifications: Sulfonylurea responsive repressor
notes: library L6 clone, parent of library L8 hits
B6: L6-5G06 (protein)
chain: B1 chain with A65Q, I68Y, A113T, M117Q, S152L, A174G
modifications: Sulfonylurea responsive repressor
B7: L6-5F05 (protein)
chain: B1 chain with M117Q, S152L
modifications: Sulfonylurea responsive repressor
B8: L6-2D07 (protein)
chain: B1 chain with A65Q, I68F, N83T, A113T, V135M, L171V
modifications: Sulfonylurea responsive repressor
B9: L6-5H06 (protein)
chain: B1 chain with A65Q, Q109K, A113T, S152L, L171V
modifications: Sulfonylurea responsive repressor
B10: L6-5H12 (protein)
chain: B1 chain with I68Y, Q109K, A113T, M117Q, V135M, S152L, L171V
modifications: Sulfonylurea responsive repressor
B11: L8-3F09 (protein)
chain: MARLDKSKVINSALELLNEVGIEGLTTRKLAQKLGVEQPTLYWHVKNKRALLDALAIEMMDRHQTHYSPLEGESWQDFLRNNAKSLRCALLSHRDGAKVCLGTRWTEQQYESAENMLAFLTQQGFSLENALYALTAVRVFTLGWVLFDQESQVAKEERETPTTDSMPPLLRQAWELKDHQGAEPAFLFGLELIIAGLEKQLKRESGS
modifications: Sulfonylurea responsive repressor
B12: L8-2F12 (protein)
chain: B11 chain with L86C, C88N, T135Q, A195R, R203S
modifications: Sulfonylurea responsive repressor
B13: L8-1A04 (protein)
chain: B11 chain with S68L, L86C, C88N, S112T, T135E, V137A, W144A, A195S
modifications: Sulfonylurea responsive repressor
B14: L8-3D03 (protein)
chain: B11 chain with S68L, L86C, C88N, T135D, W144A, A195R, R203S
modifications: Sulfonylurea responsive repressor
B15: L8-1B12 (protein)
chain: B11 chain with L86W, T135E, R203A
modifications: Sulfonylurea responsive repressor
B16: L8-3F02 (protein)
chain: B11 chain with L86C, C88R, T121C, L134V, T135S, V139I, W144A
modifications: Sulfonylurea responsive repressor
B17: L8-3B08 (protein)
chain: B11 chain with L134V, T135D, V137A, A195R
modifications: Sulfonylurea responsive repressor

Numbering of substitutions follows the chain as printed.

The first data set concerns E. coli assay strain Km3. In kind it is cell-based. The conditions noted are these: M9 assay plates, 0.2 ppm chlorsulfuron, 48 hr at 30° C., ImageJ colony color intensity. The protocol: Library L6 was assembled, rescued, ligated into pVER7314, transformed into E. coli KM3 and plated out onto LB carbenicillin/kanamycin, and carbenicillin only control media as before. Library plates were then picked into 42 384-well microtiter plates (˜16,000 clones) containing 60 μl LB carbenicillin (Cb) broth per well. After overnight growth at 37° C. the cultures were stamped onto M9 assay plates containing no inducer, 0.2 ppm, and 2.0 ppm chlorsulfuron as test inducer. Following incubation at 30° C. for ˜48 hrs, putative hits responding to chlorsulfuron treatment as determined by increased blue colony color were re-arrayed into six 96-well microtiter plates and used to stamp a fresh set of M9 assay plates to confirm the above results. For a more detailed analysis of the relative induction by chlorsulfuron, digital photographs were taken of the plates after various time points of incubation at 30° C. and colony color intensity measured using the digital image analysis freeware program ImageJ (Rasband, US National Institutes of Health, Bethesda, Md., USA, rsb.info.nih.gov/ij/, 1997-2007). […] From this analysis sequence-activity relationships were derived. […] Briefly, C at position 100, and Q at positions 108 and 109 strongly correlated with activation, while R at position 138, L at position 170, and A or G at position 173 were highly preferred in clones with the lowest background activity. […] This information will aid in the design of further libraries to improve responsiveness to chlorsulfuron.
Library L8 construction and screening. Fourth round shuffling incorporated the best diversity from Rd3 shuffling (BB1860) as well as computational diversity (Table 14). As diversity was very high the library oligo mix was spiked into the parental hit variant oligo mix (5, 10, and 25% mixes) to titer down the number of residue changes per clone. In addition, to varying residues for Cs activity, seven residues (C68, C86, C88, C121, C144, C195, and C203) were varied with TetR family phylogenetic substitutions in an attempt to reduce the number of cysteine residues in the repressor. The PCR assembled libraries were cloned Sac1/Asc1 into pVER7334. This plasmid encodes PBAD promoter controlled expression of a plant optimized TetR DNA binding domain fused to the wt ligand binding domain of TetR(B) encoded by native Tn10 sequence on a Sac1 to Asc1 fragment. Approximately 15,000 clones were screened for blue colony color on the M9 Xgal assay plates +/−200 ppb Chlorsulfuron (Cs). Clones were ranked by ratio of color with inducer after 24 hrs incubation over colony color without inducer for 48 hrs of incubation. The sequence trend in the overall larger population of hits (first re-array) was that L55, R104, W105 and L170 were maintained while the C144A substitution was highly preferred. Sequence trends within the hit population were then noted with respect to repression, induction and fold induction (which corrects for leakiness).
Mutagenesis reactions were transformed into library strain Km3 and 96 colonies tested for substitution by DNA sequence analysis. Substitutions representing each possible residue at each position were then re-arrayed in triplicate onto M9 X-gal assay plates with 0, 20 and 200 ppb Chlorsulfuron. Plates were incubated at 37° C. for 24 and 48 hrs prior to imaging. Residue substitutions were then ranked by activation (emphasis on 20 ppb Cs) and repression characteristics (emphasis on 48 hr time point). The mutation with the greatest impact on activity was substitution of residue N82 to phenylalanine or tyrosine. […] All other preferred substitutions shown in Table 18 either improved repression or improved sensitivity to inducer without compromising repressor function. Certain residues were indispensible to function such as R104, W105, and W174 as substitutions were not allowed. Other residue positions such as R138 and K177 were also flagged as critical since functional substitutions were extremely limited. […]
For B1, the “0.2 ppm 48 hr (colony color intensity)” value was 30.0.

For the molecule B2, the “0.2 ppm 48 hr (colony color intensity)” value turned out to be 11.6.

B3: the “0.2 ppm 48 hr (colony color intensity)” value was 15.8.

For the molecule B4, the “0.2 ppm 48 hr (colony color intensity)” value was 13.6.

As for B5, the “0.2 ppm 48 hr (colony color intensity)” value came out at 18.4.

B6: the “0.2 ppm 48 hr (colony color intensity)” value amounted to 34.4.

On to B7, for which the “0.2 ppm 48 hr (colony color intensity)” value is 22.0.

For the molecule B8, the “0.2 ppm 48 hr (colony color intensity)” value amounted to 20.0.

As to B9, the “0.2 ppm 48 hr (colony color intensity)” value is listed as 13.7.

As to B10, the “0.2 ppm 48 hr (colony color intensity)” value was found to be 23.7.

Staying with this data set, now noted: M9 assay plates, no inducer, 84 hr at 30° C., ImageJ colony color intensity.
Turning to B1, the “Control 84 hr (colony color intensity, background)” value stood at 6.6.

Regarding B2, the “Control 84 hr (colony color intensity, background)” value is on record as 5.1.

B3: the “Control 84 hr (colony color intensity, background)” value was determined as 5.6.

Turning to B4, the “Control 84 hr (colony color intensity, background)” value turned out to be 5.2.

Take B5: the “Control 84 hr (colony color intensity, background)” value was found to be 5.0.

With B6, the “Control 84 hr (colony color intensity, background)” value is reported as 7.0.

Consider B7, for which the “Control 84 hr (colony color intensity, background)” value is 5.4.

B8: the “Control 84 hr (colony color intensity, background)” value is listed as 5.8.

Regarding B9, the “Control 84 hr (colony color intensity, background)” value is 5.1.

As for B10, the “Control 84 hr (colony color intensity, background)” value is listed as 5.7.

Still in this data set, the particulars now being: library L8 hits; M9 Xgal colony assay; 200 ppb Chlorsulfuron; 24 hrs.
For the molecule B5, the “IND = induction with 200 ppb Cs at 24 hrs (blue colony color intensity thru ImageJ analysis)” value (“IND = induction with 200 ppb Cs” for short) stood at 0.2.

Turning to B11, the “IND = induction with 200 ppb Cs” value is 5.6.

Consider B12, for which the “IND = induction with 200 ppb Cs” value stood at 2.7.

Consider B13, for which the “IND = induction with 200 ppb Cs” value was 12.2.

Consider B14, for which the “IND = induction with 200 ppb Cs” value is 5.9.

Take B15: the “IND = induction with 200 ppb Cs” value is 12.5.

In the case of B16, the “IND = induction with 200 ppb Cs” value is listed as 3.4.

For the molecule B17, the “IND = induction with 200 ppb Cs” value was determined as 13.0.

The data set is the same for the next values; noted with them: library L8 hits; M9 Xgal colony assay; ratio IND (200 ppb Cs, 24 hrs) / REP (48 hrs).
Turning to B5, the “F. IND = fold induction: induction with 200 ppb Cs at 24 hrs/repression at 48 hrs” value worked out at 0.4.

On to B11, for which the “F. IND = fold induction: induction with 200 ppb Cs at 24 hrs/repression at 48 hrs” value is 9.7.

B12: the “F. IND = fold induction: induction with 200 ppb Cs at 24 hrs/repression at 48 hrs” value came out at 3.6.

On to B13, for which the “F. IND = fold induction: induction with 200 ppb Cs at 24 hrs/repression at 48 hrs” value was 6.2.

Take B14: the “F. IND = fold induction: induction with 200 ppb Cs at 24 hrs/repression at 48 hrs” value came out at 4.9.

As to B15, the “F. IND = fold induction: induction with 200 ppb Cs at 24 hrs/repression at 48 hrs” value is 5.1.

In the case of B16, the “F. IND = fold induction: induction with 200 ppb Cs at 24 hrs/repression at 48 hrs” value is on record as 3.5.

As to B17, the “F. IND = fold induction: induction with 200 ppb Cs at 24 hrs/repression at 48 hrs” value worked out at 6.1.

Still in this data set, the particulars now being: library L8 hits; M9 Xgal colony assay; without inducer; 48 hrs.
On to B5, for which the “REP = repression measured without inducer after 48 hrs (blue colony color intensity thru ImageJ analysis)” value was 0.6.

Regarding B11, the “REP = repression measured without inducer after 48 hrs (blue colony color intensity thru ImageJ analysis)” value is on record as 0.6.

B12: the “REP = repression measured without inducer after 48 hrs (blue colony color intensity thru ImageJ analysis)” value is 0.7.

In the case of B13, the “REP = repression measured without inducer after 48 hrs (blue colony color intensity thru ImageJ analysis)” value is reported as 2.0.

Turning to B14, the “REP = repression measured without inducer after 48 hrs (blue colony color intensity thru ImageJ analysis)” value is recorded as 1.2.

For the molecule B15, the “REP = repression measured without inducer after 48 hrs (blue colony color intensity thru ImageJ analysis)” value was 2.4.

In the case of B16, the “REP = repression measured without inducer after 48 hrs (blue colony color intensity thru ImageJ analysis)” value came to 1.0.

Take B17: the “REP = repression measured without inducer after 48 hrs (blue colony color intensity thru ImageJ analysis)” value came out at 2.1.

The same data set, now with this note: ratio of colony color with 0.2 ppm chlorsulfuron at 48 hr over no-inducer control at 84 hr.
As to B1, the “0.2 ppm 48 hr/Control 84 hr” value came to 4.6.

With B2, the “0.2 ppm 48 hr/Control 84 hr” value came to 2.3.

B3: the “0.2 ppm 48 hr/Control 84 hr” value turned out to be 2.8.

Regarding B4, the “0.2 ppm 48 hr/Control 84 hr” value stood at 2.6.

In the case of B5, the “0.2 ppm 48 hr/Control 84 hr” value stood at 3.7.

In the case of B6, the “0.2 ppm 48 hr/Control 84 hr” value is on record as 4.9.

In the case of B7, the “0.2 ppm 48 hr/Control 84 hr” value is recorded as 4.1.

On to B8, for which the “0.2 ppm 48 hr/Control 84 hr” value was 3.4.

Turning to B9, the “0.2 ppm 48 hr/Control 84 hr” value is 2.7.

In the case of B10, the “0.2 ppm 48 hr/Control 84 hr” value came to 4.2.
